Measured values published in patent US9144596 (UNIVERSITY OF FLORIDA RESEARCH FOUNDATION, dated 2015).

B1: APC(I-A,Y-A) (amino acids 1200-1324; I1259A, Y1262A) fused to the yeast Gal4 DNA-binding domain (pGBDU-C3-APC(I-A,Y-A)) (other)
chain: SSSGQSSKTEHMSSSSENTSTPSSNAKRQNQLHPSSAQSRSGQPQKAATCKVSSINQETAQTACVEDTPICFSRCSSLSSLSSAEDEIGCNQTTQEADSANTLQIAEIKEKIGTRSAEDPVSEVP
notes: also called mutant APC (I-A,Y-A); mutant DRI-domain
B2: APCwt (amino acids 1190-1328) fused to the yeast Gal4 DNA-binding domain (pGBDU-C3-APCwt) (other)
chain: MKLLSSIEQACDICRLKKLKCSKEKPKCAKCLKNNWECRYSPKTKRSPLTRAHLTEVESRLERLEQLFLLIFPREDLDMILKMDSLQDIKALLTGLFVQDNVNKDAVTDRLASVETDMPLTLRQHRISATSSSEESSNKGQRQLTVSSQKQSFSFSKSSSGQSSKTEHMSSSSENTSTPSSNAKRQNQLHPSSAQSRSGQPQKAATCKVSSINQETIQTYCVEDTPICFSRCSSLSSLSSAEDEIGCNQTTQEADSANTLQIAEIKEKIGTRSAEDPVSEVPAVSQ
notes: Yeast two-hybrid bait, expressed in S. cerevisiae PJ69-4A; also called APC wild-type (wt)

What was measured:
[1] = biological target: pol-βwt (full-length DNA polymerase β) fused to the yeast Gal4 activation domain (pGAD-C3-pol-βwt) (yeast; human, UniProt P06746 1-335); assay: yeast two-hybrid (growth on SD-ULH medium with 5 mM 3-amino-1,2,4-triazole)
[2] = biological target: pol-βMut(Set-1) (T79A/K81A/R83A) fused to the yeast Gal4 activation domain (pGAD-C3-pol-βMut(Set-1)) (yeast; human, UniProt P06746 1-335); assay: as above

Row | Binder | binding result [1] | binding result [2]
1 | B1 | no binding | –
2 | B2 | – | no binding
